# Test results reported in patent US20220001020A1.
# Target: CD123 (human) (UniProt P26951)
# Assay: cell-based or functional assay
# Sequence of UniProt P26951 (P26951 19-378): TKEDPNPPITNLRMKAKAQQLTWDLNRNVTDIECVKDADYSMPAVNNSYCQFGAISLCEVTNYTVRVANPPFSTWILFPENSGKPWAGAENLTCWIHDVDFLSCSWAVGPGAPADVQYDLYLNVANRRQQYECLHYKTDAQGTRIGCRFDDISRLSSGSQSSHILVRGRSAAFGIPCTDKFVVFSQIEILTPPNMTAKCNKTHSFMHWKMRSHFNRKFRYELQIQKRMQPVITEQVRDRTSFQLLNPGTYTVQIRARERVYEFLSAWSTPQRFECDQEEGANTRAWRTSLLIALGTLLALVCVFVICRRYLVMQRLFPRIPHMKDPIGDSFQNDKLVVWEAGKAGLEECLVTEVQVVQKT
substance,measurement,value
diphtheria toxin-human interleukin-3 conjugate (DT-IL3),"IC50, cell viability assay",4.8 nM
